The values below come from article PMC9616523 (2022).

In assay [1] the target is Avaren‐Fc expressed in glycoengineered ΔXylT/ΔFucT N. benthamiana (AvFc^ΔXF) ( | human). Description: SPR. In general terms: Surface plasmon resonance follows binding to a sensor surface in real time, without labels.
The target in assay [2] is Avaren‐Fc expressed in wild‐type N. benthamiana (AvFc^WT) ( | human). Description: SPR.

B1: mouse FcγRIV (receptor)
chain: GLQKAVVNLDPKWVRVLEEDSVTLRCQGTFSPEDNSIKWFHNESLIPHQDANYVIQSARVKDSGMYRCQTALSTISDPVQLEVHMGWLLLQTTKWLFQEGDPIHLRCHSWQNRPVRKVTYLQNGKGKKYFHENSELLIPKATHNDSGSYFCRGLIGHNNKSSASFRISLGDPGSPSMFPPWHQ
The Kd is the constant that tells how readily two partners part at equilibrium. Low values mean higher affinity, high ones lower affinity. As for B1, the values for the Kd in assay [1] and in assay [2] were 457 nM and 2530 nM, respectively.

B2: human FcγRI (receptor)
chain: QVDTTKAVITLQPPWVSVFQEETVTLHCEVLHLPGSSSTQWFLNGTATQTSTPSYRITSASVNDSGEYRCQRGLSGRSDPIQLEIHRGWLLLQVSSRVFTEGEPLALRCHAWKDKLVYNVLYYRNGKAFKFFHWNSNLTILKTNISHNGTYHCSGMGKHRYTSAGISVTVKELFPAPVLNASVTSPLLEGNLVTLSCETKLLLQRPGLQLYFSFYMGSKTLRGRNTSSEYQILTARREDSGLYWCEAATEDGNVLKRSPELELQVLGLQLPTPVWFH
Turning to B2, the Kd in assay [1] amounted to 4.04 nM; in assay [2], 7.78 nM.
